Measurements from paper doi:10.1101/2020.03.08.831909 (2020).

Columns and labels:
[1] = target: OptoMB_(C450V), light-insensitive, His-tagged, purified (Avena sativa, UniProt O49003 408-543, C450V); assay: BLI; dark conformation (C450V)
[2] = target: His6-OptoMB_(V416I_G528A_N538E) fused to an N-terminus SUMO tag, purified (Avena sativa, UniProt O49003 408-543, V416I | G528A | N538E); assay: BLI; light conformation (lit-mimetic mutant)

koff [1]: 0.00753 s⁻¹ | Kd [2]: 21.7 µM | koff [2]: 0.0489 s⁻¹
B1: YFP-SH2, purified (fusion of yellow fluorescent protein and SH2) (domain or fragment)
chain: SLEKHSWYHGPVSRNAAEYLLSSGINGSFLVRESESSPGQRSISLRYEGRVYHYRINTASDGKLYVSSESRFNTLAELVHHHSTVADGLITTLHYPAPKRNKPTVYGVSPNY
